Reference: patent US20190271704

Tests used:
[1] = test system: T1, NE peptide substrate with acetylated N-terminal CKKK-PEG4 linker and C-terminal heptafluorobutylamine reporter (peptide-PFC)
T1 sequence: CKKKXXXX

[2] = test system: T2, NE peptide substrate with acetylated N-terminal CKKK-PEG4 linker and C-terminal pentafluoropropylamine reporter (peptide-PFC)
T2 sequence: CKKKXXXX

Substance	PFC release from the peptide substrate (real-time vapor analysis mass spectrometry) [1]	PFC release from the peptide substrate (real-time vapor analysis mass spectrometry) [2]
MMP9	minimal cleavage by other proteases ... (MMP9 and MMP13	minimal cleavage by other proteases ... (MMP9 and MMP13
MMP13	minimal cleavage by other proteases ... (MMP9 and MMP13	minimal cleavage by other proteases ... (MMP9 and MMP13
